Data taken from EP4554620A1.

Key:
[1] = molecular target: Human TIGIT residues 23-128 ILE68A mutant (human) (UniProt Q495A1); assay: SPR, capture immobilization, TIGIT alanine mutants
[2] = molecular target: Human TIGIT residues 23-128 PRO79A mutant (human) (UniProt Q495A1); assay: SPR, capture immobilization, TIGIT alanine mutants
[3] = molecular target: Human TIGIT residues 23-128 LEU73A mutant (human) (UniProt Q495A1); assay: SPR, capture immobilization, TIGIT alanine mutants
[4] = molecular target: Human TIGIT residues 23-128 HIS76A mutant (human) (UniProt Q495A1); assay: SPR, capture immobilization, TIGIT alanine mutants
[5] = molecular target: Human TIGIT residues 23-128 ASP63A mutant (human) (UniProt Q495A1); assay: SPR, capture immobilization, TIGIT alanine mutants
[6] = molecular target: Human TIGIT residues 23-128 LEU73A/HIS76A double mutant (human) (UniProt Q495A1); assay: SPR, capture immobilization, TIGIT alanine mutants
[7] = molecular target: Human TIGIT residues 23-128 with C-terminal HIS tag (human) (UniProt Q495A1); assay: SPR, amine coupling, pH 7.4 against pH 6.0
Chain of Human TIGIT residues 23-128 with C-terminal HIS tag (human) (Q495A1 23-128, form in doubt): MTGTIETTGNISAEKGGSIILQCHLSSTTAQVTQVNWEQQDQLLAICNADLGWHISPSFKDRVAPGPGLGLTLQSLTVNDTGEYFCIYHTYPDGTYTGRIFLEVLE

Chain of Human TIGIT residues 23-128 ILE68A mutant (human) (Q495A1 other isoform, or with tags, fused parts or gaps mutant, form in doubt): as the sequence (Q495A1 23-128, form in doubt) above, with I46A counted along it
Chain of Human TIGIT residues 23-128 LEU73A mutant (human) (Q495A1 other isoform, or with tags, fused parts or gaps mutant, form in doubt): as the sequence (Q495A1 23-128, form in doubt) above, with L51A counted along it
Chain of Human TIGIT residues 23-128 ASP63A mutant (human) (Q495A1 other isoform, or with tags, fused parts or gaps mutant, form in doubt): as the sequence (Q495A1 23-128, form in doubt) above, with D41A counted along it
Chain of Human TIGIT residues 23-128 PRO79A mutant (human) (Q495A1 other isoform, or with tags, fused parts or gaps mutant, form in doubt): as the sequence (Q495A1 23-128, form in doubt) above, with P57A counted along it
Chain of Human TIGIT residues 23-128 HIS76A mutant (human) (Q495A1 other isoform, or with tags, fused parts or gaps mutant, form in doubt): as the sequence (Q495A1 23-128, form in doubt) above, with H54A counted along it
Chain of Human TIGIT residues 23-128 LEU73A/HIS76A double mutant (human) (Q495A1 other isoform, or with tags, fused parts or gaps mutant, form in doubt): as the sequence (Q495A1 23-128, form in doubt) above, with L51A, H54A counted along it

fold decrease in binding affinity against WT TIGIT [1]: 30 fold
fold reduction of binding against wild-type TIGIT [1]: > 10 fold
fold lower binding affinity against WT TIGIT [2]: 3 fold
fold reduction in binding affinity against WT TIGIT [3]: 7 fold
fold reduction of binding against wild-type TIGIT [4]: > 10 fold
fold decrease in binding affinity against WT TIGIT [5]: 7 fold
fold reduction of binding against wild-type TIGIT [6]: > 10 fold
fold increase of binding affinity (KD) from pH 7.4 to pH 6.0 [7]: 17 fold
Substance: A1217 (Ociperlimab) (antibody)
